This assay concerns luciferase position 361 and sfGFP amber suppression. In words: Amber suppression assays using several different reporters (luciferase and sfGFP). It counts as cell-based, E. coli. The settings on record: BocK; IPYE variant vs parent enzyme; FIGS. 9B-9D. The method, then:
S1030 cells (25 μL) were electroporated with the appropriate plasmid(s) and recovered in SOC media (New England Biolabs) for 1 h while shaking at 37° C. Transformed cells were plated and grown overnight at 37° C. on LB agar containing the antibiotics required for plasmid maintenance. Single colonies were used to inoculate 2-3 mL of DRM containing antibiotics and were grown overnight at 37° C. while shaking at 230 rpm. The saturated overnight cultures were diluted 100-fold in a 96-well deep well plate using 1 mL of DRM containing the required antibiotic and supplemented with 1 mM ncAA where denoted. […] The plate continued to incubate with shaking at 37° C. for an additional 2-3 h until maximum luminescence signal was observed. Each luminescence measurement was taken on 150 μL of each culture, which had been transferred to a 96-well black wall, clear bottom plate (Costar). The A600 and luminescence measurements from each well were taken using an Infinite M1000 Pro microplate reader (Tecan). […] The raw luminescence value from each well was divided by the background-subtracted A600 value of the corresponding well to provide the luminescence value normalized to cell density. […]

B1: MbPylRS(IPYE): M. barkeri PylRS with transplanted PACE mutations V31I, T56P, H62Y, A100E (protein, UniProt Q6WRH6 1-419, looked up, variant V31I T56P H62Y A100E)
Pyrrolysine--tRNA ligase: MDKKPLDVLISATGLWMSRTGTLHKIKHHEISRSKIYIEMACGDHLVVNNSRSCRPARAFRYHKYRKTCKRCRVSDEDINNFLTRSTESKNSVKVRVVSEPKVKKAMPKSVSRAPKPLENSVSAKASTNTSRSVPSPAKSTPNSSVPASAPAPSLTRSQLDRVEALLSPEDKISLNMAKPFRELEPELVTRRKNDFQRLYTNDREDYLGKLERDITKFFVDRGFLEIKSPILIPAEYVERMGINNDTELSKQIFRVDKNLCLRPMLAPTLYNYLRKLDRILPGPIKIFEVGPCYRKESDGKEHLEEFTMVNFCQMGSGCTRENLEALIKEFLDYLEIDFEIVGDSCMVYGDTLDIMHGDLELSSAVVGPVSLDREWGIDKPWIGAGFGLERLLKVMHGFKNIKRASRSESYYNGISTNL
As to B1, the “activity in amber suppression assays using several different reporters” value is recorded as “dramatically enhanced”.

B2: MmPylRS(IPYE): M. mazei PylRS with transplanted PACE mutations V31I, T56P, H62Y, A100E (protein, UniProt Q8PWY1 1-454, looked up, variant V31I T56P H62Y A100E)
Pyrrolysine--tRNA ligase: MDKKPLNTLISATGLWMSRTGTIHKIKHHEISRSKIYIEMACGDHLVVNNSRSSRPARALRYHKYRKTCKRCRVSDEDLNKFLTKANEDQTSVKVKVVSEPTRTKKAMPKSVARAPKPLENTEAAQAQPSGSKFSPAIPVSTQESVSVPASVSTSISSISTGATASALVKGNTNPITSMSAPVQASAPALTKSQTDRLEVLLNPKDEISLNSGKPFRELESELLSRRKKDLQQIYAEERENYLGKLEREITRFFVDRGFLEIKSPILIPLEYIERMGIDNDTELSKQIFRVDKNFCLRPMLAPNLYNYLRKLDRALPDPIKIFEIGPCYRKESDGKEHLEEFTMLNFCQMGSGCTRENLESIITDFLNHLGIDFKIVGDSCMVYGDTLDVMHGDLELSSAVVGPIPLDREWGIDKPWIGAGFGLERLLKVKHDFKNIKRAARSESYYNGISTNL
As to B2, the “activity in amber suppression assays using several different reporters” value is recorded as “improved, albeit more modestly”.

Source of the values: patent publication US11447809B2, “Evolution of tRNA synthetases” (President and Fellows of Harvard College, priority 2017, dated 2022).
